Results published in US20250025535A1, “A COMPOSITION COMPRISING NANOSIZED ACTIVE PHARMACEUTICAL INGREDIENT” (NANOFORM FINLAND OYJ, priority 2021, published 2025).

Assay: Sedimentation of insulin suspension in fish oil
Assay type: physicochemical
Conditions: 10 mg in 1 ml fish oil, room temperature, t=0, 30 min, 60 min, 24 h; compared with bulk insulin
Method: A: t=0 min; B: t=30 min; C: t=60 min; D: t=24 h.
Nanosized insulin or bulk insulin (10 mg, Sigma) was added to 1 ml of fish oil, mixed by vortexing and allowed to stand at room temperature.

Substance: insulin [nanosized insulin]
- sedimentation in fish oil as a function of time: significantly slower
